Results from publication PMC12819146.

Tests used:
[1] = biological target: PtuA of retron Ec78, wild type, His-Sumo tagged (E. coli ECONIH5); test: SEC
[2] = biological target: PtuA-E396Q of retron Ec78 (ATPase-deficient mutant), as expressed from the Ec78 operon (E. coli ECONIH5); test: cryo-EM structure
[3] = biological target: PtuA-Q361L of retron Ec78, His-Sumo tagged, co-expressed with PtuB without the retron (E. coli ECONIH5); test: cryo-EM structure

With “PtuA of retron Ec78, wild type, His-Sumo tagged (enzyme)” as the substance, how does the stoichiometry N [1] read?
The stoichiometry N was 4.

How did the stoichiometry N [2] turn out when “PtuA-E396Q of retron Ec78 (ATPase-deficient mutant), as expressed from the Ec78 operon (enzyme)” was run?
The stoichiometry N was 4.

Which stoichiometry N [3] does the source give for “PtuA-Q361L of retron Ec78, His-Sumo tagged, co-expressed with PtuB without the retron (enzyme)” here?
The stoichiometry N was 4.

“PtuB of retron Ec78 with C-terminal His-tag, as expressed from the Ec78 operon (enzyme)” was tested. Which stoichiometry N (PtuB subunits for four PtuA subunits) [2] did it give?
Its stoichiometry N (PtuB subunits for four PtuA subunits) is 2.

For “PtuB of retron Ec78, co-expressed with His-Sumo-PtuA from pRSF-Duet (enzyme)”, which stoichiometry N (PtuB subunits for four PtuA subunits) [3] is on record?
Its stoichiometry N (PtuB subunits for four PtuA subunits) is 2.

What does the source list for “Reverse transcriptase of retron Ec78 (enzyme)”?
stoichiometry N (RT for four PtuA subunits) [2]: 2; stoichiometry N (RT–ncRNA–msDNA for four PtuA subunits) [2]: 1
